In test [1] the test system is colon cancer cells (SW620, HCT116). The following applies: general description of other anti-EpCAM antibodies; cited from earlier work.
Test [2] has as its target T1, EpCAM (Homo sapiens, UniProt P16422).
T1 construct: HEK293T cells were transfected with full length or EGF like-domain deletion mutant EpCAM-V5; V5; expressed in transfected cells; host or cells: HEK293T
T1 sequence (P16422 24-314): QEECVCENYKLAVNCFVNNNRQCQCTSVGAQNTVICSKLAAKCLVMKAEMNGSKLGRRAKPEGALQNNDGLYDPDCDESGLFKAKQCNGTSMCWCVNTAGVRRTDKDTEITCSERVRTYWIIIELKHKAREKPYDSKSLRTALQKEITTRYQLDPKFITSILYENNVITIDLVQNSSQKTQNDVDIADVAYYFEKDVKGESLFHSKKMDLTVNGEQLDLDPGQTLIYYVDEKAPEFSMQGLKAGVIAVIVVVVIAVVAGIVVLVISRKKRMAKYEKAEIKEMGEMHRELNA
Conditions: general description of other anti-EpCAM antibodies; cited from earlier work.

Another test has as its target T2, recombinant LRP6 (Homo sapiens, UniProt O75581).
T2 construct: purchased Proteintech
Description: ELISA of EpEX binding to Wnt receptor-coated plates (LRP6). Conditions: EpEX-His alone, 2 hours; optical density at 450 nm. Here is the method: (§1) For ELISA, wells (at least 6 wells per single protein) were coated with recombinant FZD6 (Proteintech), recombinant FZD7 (Proteintech), recombinant LRP5 (Proteintech), recombinant LRP6 (Proteintech) overnight at 4° C. The wells were then blocked with 1% BSA and treated with EpEX-his (Produced in house by Expi293 Expression System) for 2 hours. Otherwise, EpEX-His was incubated with EpAb2-6 overnight and the complex was used to treat the protein-coated plates for 2 hours. Further anti-His antibody (abeam) was used and TMB was performed to record optical density at 450 nm.

The target in another test is T3, recombinant FZD7 (Homo sapiens, UniProt O75084).
T3 construct: purchased Proteintech
Description: ELISA of EpEX binding to Wnt receptor-coated plates (FZD7). Here is the method:
as §1
Background: ELISA stands for enzyme-linked immunosorbent assay.

For another test, the system named is TACE. Description: TACE activity assay. In kind it is cell-based, human. The following applies: HCT116 and HT29 cells; 250 ng/mL EpEX-His or 100 ng/mL Wnt3A for 8 h, or combination. On the procedure: Cells were seeded overnight in 24-well plate ([…] cells per well) and further treated with 250 ng/mL EpEX-His or 100 ng/mL Wnt3A (R&D Systems) for 8 h. Then, TACE activity was measured using the InnoZyme TACE activity kit (Merck). In brief, cell lysates were prepared with RIPA buffer and loaded into a TACE antibody-coated plate and incubated at RT for 1 h with slight shaking. Further, the lysates were removed and the plate was washed three times. Substrate was added into each well and incubated for 5 h at 37° C. Finally, the fluorescence signal of the reaction product was detected at excitation of 324 nm and emission of 405 nm using a microplate reader.

In test [3] the test system is HCT116 cells. Description: Metastatic animal model of human CRC (HCT116 cells via tail vein). It is filed as in vivo, NOD/SCID mice. On the procedure:
(§2) All animal experiments were approved and performed according to the regulations from the IACUC at Academia Sinica. HCT116 cells (1×10^6) were injected via tail vein for the metastatic model. Otherwise, 2×10^5 HCT116 cells with luciferase were surgically transplanted into the cecum wall for the orthotopic model. Male NOD/SCID mice, approximately 6 to 8 weeks old, were used for animal experiments (n=5 and n=6 for each treatment group in metastatic and orthotopic models respectively). At 72-h post-injection/transplantation, mice were randomly distributed into four different treatment groups. For the treatments, animals were injected with 20 mg/kg IgG or EpAb2-6 via tail vein twice a week for four weeks, or fed by oral gavage with either vehicle [0.5% methylcellulose (Sigma-Aldrich) and 0.5% Tween80 (Sigma-Aldrich)] or 5 mg/kg LGK974 (MedChemExpress) formulated with the vehicle on alternating days for four weeks, or animals were treated with the combination of both inhibitor and antibody. For the metastatic model, survival was the main endpoint. For the orthotopic model, tumor progression was monitor using bioluminescence imaging. To image the tumors, intraperitoneal injection of D-Luciferin (GOLD BIO) was performed, and images were taken 10 min post-injection.

Test [4] has as its system HCT116 cells. Description: Orthotopic animal model of human CRC (HCT116 cells with luciferase in cecum wall). Conditions: orthotopic model. In kind it is in vivo, NOD/SCID mice. Here is the method:
as §2

In test [5] the target is T1, EpCAM. As to the kind of experiment: Antibody binding to EpCAM wild-type, deletion and point mutants in HEK293T cells (immunofluorescence, flow cytometry, cellular ELISA). Conditions: EGF-like domain deletion and point mutants. Here is the method:
FIGS. 18A to 18G. […] HEK293T cells were transfected with full length or EGF like-domain deletion mutant EpCAM-V5. Antibody binding was assessed by (FIG. 8A) Western blotting, (FIG. 8B) flow cytometry, and (FIG. 8C) immunofluorescence. (FIG. 8D) EpCAM mutants were constructed with amino acid substitutions in the EGF-I (Y32A) and EGF-II (L94A, Y95A, or D96A) domains. EpCAM wild-type and mutant proteins were expressed in HEK293T cells. Binding of MT201, EpAb2-6 and EpAb23-1 to EpCAM wild-type and mutants were evaluated by (FIG. 8E) immunofluorescence, (FIG. 8F) flow cytometry, and (FIG. 8G) cellular ELISA. All data are presented as mean±SEM. *, p<0.05; **, p<0.01.
Here, we wanted to determine whether the antibody binds to EpCAM at both EGF-like domains of EpEX (FIG. 18A, FIG. 18B, FIG. 18C). To confirm that EpAb2-6 recognizes the LYD motif in EpCAM, we constructed cDNA sequences encoding the first (aa 27-59; EGF-I domain) and second (aa 66-135; EGF-II/TY domain) EGF-like repeats of EpCAM. PCR-based site-directed mutagenesis was then used to introduce mutations into each domain (FIG. 18D). The reactivity of EpAb2-6 antibody toward these EpCAM mutants was evaluated by immunofluorescence (FIG. 18E), flow cytometry (FIG. 18F), and cellular ELISA (FIG. 18G).
For orientation: A flow cytometer gives signals particle by particle.

[6] abbreviates: 20 mg/kg EpAb2-6 via tail vein twice a week, 5 mg/kg LGK974 oral gavage on alternating days, four weeks.

Entries after “also recorded” stand apart in the source; their conditions may differ. Where two headings read alike, the source gives them in different places.

T2 sequence (O75581 20-1613): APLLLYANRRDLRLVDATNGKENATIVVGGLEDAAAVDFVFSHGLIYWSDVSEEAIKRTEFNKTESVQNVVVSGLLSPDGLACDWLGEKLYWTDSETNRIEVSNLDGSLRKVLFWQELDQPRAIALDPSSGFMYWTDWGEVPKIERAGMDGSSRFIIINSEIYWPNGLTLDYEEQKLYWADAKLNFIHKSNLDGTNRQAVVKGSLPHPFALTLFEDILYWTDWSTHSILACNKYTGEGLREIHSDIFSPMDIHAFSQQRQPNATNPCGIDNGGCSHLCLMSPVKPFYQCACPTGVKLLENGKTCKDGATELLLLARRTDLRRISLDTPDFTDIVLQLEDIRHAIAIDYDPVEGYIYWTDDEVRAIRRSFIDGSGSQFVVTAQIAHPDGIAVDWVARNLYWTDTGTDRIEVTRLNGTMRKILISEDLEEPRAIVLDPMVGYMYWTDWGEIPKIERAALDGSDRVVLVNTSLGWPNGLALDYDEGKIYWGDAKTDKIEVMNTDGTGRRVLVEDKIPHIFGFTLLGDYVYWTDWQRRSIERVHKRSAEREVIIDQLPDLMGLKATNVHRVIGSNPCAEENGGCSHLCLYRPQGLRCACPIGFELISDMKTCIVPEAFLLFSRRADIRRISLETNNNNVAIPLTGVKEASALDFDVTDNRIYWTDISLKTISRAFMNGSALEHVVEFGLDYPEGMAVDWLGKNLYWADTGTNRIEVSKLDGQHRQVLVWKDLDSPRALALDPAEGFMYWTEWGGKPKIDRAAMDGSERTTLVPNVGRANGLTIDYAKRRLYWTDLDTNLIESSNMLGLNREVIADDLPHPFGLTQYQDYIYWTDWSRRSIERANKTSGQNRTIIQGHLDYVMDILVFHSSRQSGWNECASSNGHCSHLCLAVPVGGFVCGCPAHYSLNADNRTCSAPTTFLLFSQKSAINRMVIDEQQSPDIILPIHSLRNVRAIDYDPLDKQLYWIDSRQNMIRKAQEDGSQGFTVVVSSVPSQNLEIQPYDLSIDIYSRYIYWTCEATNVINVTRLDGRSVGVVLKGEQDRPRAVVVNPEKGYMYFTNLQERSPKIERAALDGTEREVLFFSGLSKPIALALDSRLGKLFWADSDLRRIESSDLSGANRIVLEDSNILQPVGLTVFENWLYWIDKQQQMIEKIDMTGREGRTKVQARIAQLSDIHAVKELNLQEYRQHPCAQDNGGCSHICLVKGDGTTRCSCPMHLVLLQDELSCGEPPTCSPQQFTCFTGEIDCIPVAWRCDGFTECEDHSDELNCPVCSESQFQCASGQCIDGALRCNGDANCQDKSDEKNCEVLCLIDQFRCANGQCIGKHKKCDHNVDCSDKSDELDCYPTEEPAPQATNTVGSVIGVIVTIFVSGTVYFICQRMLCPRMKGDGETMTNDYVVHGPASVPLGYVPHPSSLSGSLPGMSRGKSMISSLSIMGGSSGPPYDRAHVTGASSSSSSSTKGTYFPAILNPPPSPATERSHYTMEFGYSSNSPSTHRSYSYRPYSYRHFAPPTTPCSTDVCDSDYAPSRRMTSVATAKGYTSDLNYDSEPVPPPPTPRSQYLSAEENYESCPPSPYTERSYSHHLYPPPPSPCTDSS

As to “MT201: adecatumumab, a human anti-EpCAM antibody that was subjected to clinical trials [reference compound]”, the “inducing apoptosis of cancer cells” value in test [1] was “failing”. In addition, the EpCAM domains bound entry in the test with EpCAM [2] is recorded as “target only the well-described EGF I domain of EpCAM; also recorded: binding to domain I only”.

B1: EpEX: extracellular domain of EpCAM, produced in house by Expi293 Expression System (protein)
chain: T1 sequence (P16422 24-314)
For B1, the “EpEX binding to LRP6” value in the test with recombinant LRP6 is reported as “bind with all receptor proteins”. The “EpEX binding to FZD7” value in the test with recombinant FZD7 (EpEX-His alone, 2 hours, optical density at 450 nm) was “bind with all receptor proteins”. Further, the TACE activity result in the test on TACE is recorded as “enhanced”.

B2: Wnt3A: recombinant Wnt3A (R & D systems) (protein, UniProt P56704 19-352, looked up)
Protein Wnt-3a: SYPIWWSLAVGPQYSSLGSQPILCASIPGLVPKQLRFCRNYVEIMPSVAEGIKIGIQECQHQFRGRRWNCTTVHDSLAIFGPVLDKATRESAFVHAIASAGVAFAVTRSCAEGTAAICGCSSRHQGSPGKGWKWGGCSEDIEFGGMVSREFADARENRPDARSAMNRHNNEAGRQAIASHMHLKCKCHGLSGSCEVKTCWWSQPDFRAIGDFLKDKYDSASEMVVEKHRESRGWVETLRPRYTYFKVPTERDLVYYEASPNFCEPNPETGSFGTRDRTCNVSSHGIDGCDLLCCGRGHNARAERRREKCRCVFHWCCYVSCQECTRVYDVHTCK
As for B2, in the test on TACE, the TACE activity result is reported as “enhanced”.

B3: EpAb2-6: anti-EpCAM (EpEX) neutralizing monoclonal antibody produced in mice by hybridoma; VH SEQ ID NO: 15, VL SEQ ID NO: 16 (antibody, V domains shown)
VH: VKLQESGPELKKPGETVKISCKASGYTFTDYSMHWVKQAPGKGLKWMGWINTETGEPTYADDFKGRFAFSLETSASTAYLQINNLKNEDTATYFCARTAVYWGQGTTVTVSS
VL: DIQMTQSPSSLSASLGERVSLTCRASQEISVSLSWLQQEPDGTIKRLIYATSTLDSGVPKRFSGSRSGSDYSLTISSLESEDFVDYYCLQYASYPWTFGGGTKLEIK
With B3, the animal survival entry in the test on HCT116 cells [3] (setting [6]) is recorded as “can prolong animal survival; also recorded: could prolong animal survival”. For the same molecule, the “mice died by the end of the study” value in the test with HCT116 cells [3] (n=5 per group) was 2 out of 5. The “EpEX binding to FZD7 after pre-incubation with antibody” value with recombinant FZD7 (EpEX-His incubated with antibody overnight) is “substantially decreased binding”. In the test with HCT116 cells [4], the “median / overall survival” value was “relatively higher median survival”. In the test with HCT116 cells [4] (setting [6]), the “tumor progression (bioluminescence)” value is listed as “much slower tumor progression”. Besides, the EpCAM domains bound result with EpCAM [5] was “binds to the EGF-I and EGF-II domains of EpEX; also recorded: binds to both EGF-like domain I and II of EpCAM”.

The values are drawn from patent US20250129146A1, “COMBINED CANCER THERAPY WITH AN EPITHELIAL CELL ADHESION MOLECULE (EPCAM) INHIBITOR AND A WNT INHIBITOR” (ACADEMIA SINICA, priority 2021, published 2025).
